Data on four molecules can be found in article PMC6684372.

Common to all, as to assay: EMSA
For orientation: A gel shift assay detects complexes by their altered migration in electrophoresis.

Data set [1] has as its target UV-DDB (DDB1-DDB2 heterodimer) (Homo sapiens) (UniProt Q16531+Q92466). The conditions noted are these: N at position 20 of strand 1 = tetrahydrofuran (abasic analog), opposite T.
The target in data set [2] is UV-DDB (DDB1-DDB2 heterodimer) (Homo sapiens, UniProt Q16531;Q92466 1-1140;1-427).
Data set [3] has as its target OGG1 (Homo sapiens, UniProt O15527 1-345).

Changes are numbered by the printed parent chain.

Sequence of UV-DDB (DDB1-DDB2 heterodimer) (Q16531 whole entry, chain 1 of 2): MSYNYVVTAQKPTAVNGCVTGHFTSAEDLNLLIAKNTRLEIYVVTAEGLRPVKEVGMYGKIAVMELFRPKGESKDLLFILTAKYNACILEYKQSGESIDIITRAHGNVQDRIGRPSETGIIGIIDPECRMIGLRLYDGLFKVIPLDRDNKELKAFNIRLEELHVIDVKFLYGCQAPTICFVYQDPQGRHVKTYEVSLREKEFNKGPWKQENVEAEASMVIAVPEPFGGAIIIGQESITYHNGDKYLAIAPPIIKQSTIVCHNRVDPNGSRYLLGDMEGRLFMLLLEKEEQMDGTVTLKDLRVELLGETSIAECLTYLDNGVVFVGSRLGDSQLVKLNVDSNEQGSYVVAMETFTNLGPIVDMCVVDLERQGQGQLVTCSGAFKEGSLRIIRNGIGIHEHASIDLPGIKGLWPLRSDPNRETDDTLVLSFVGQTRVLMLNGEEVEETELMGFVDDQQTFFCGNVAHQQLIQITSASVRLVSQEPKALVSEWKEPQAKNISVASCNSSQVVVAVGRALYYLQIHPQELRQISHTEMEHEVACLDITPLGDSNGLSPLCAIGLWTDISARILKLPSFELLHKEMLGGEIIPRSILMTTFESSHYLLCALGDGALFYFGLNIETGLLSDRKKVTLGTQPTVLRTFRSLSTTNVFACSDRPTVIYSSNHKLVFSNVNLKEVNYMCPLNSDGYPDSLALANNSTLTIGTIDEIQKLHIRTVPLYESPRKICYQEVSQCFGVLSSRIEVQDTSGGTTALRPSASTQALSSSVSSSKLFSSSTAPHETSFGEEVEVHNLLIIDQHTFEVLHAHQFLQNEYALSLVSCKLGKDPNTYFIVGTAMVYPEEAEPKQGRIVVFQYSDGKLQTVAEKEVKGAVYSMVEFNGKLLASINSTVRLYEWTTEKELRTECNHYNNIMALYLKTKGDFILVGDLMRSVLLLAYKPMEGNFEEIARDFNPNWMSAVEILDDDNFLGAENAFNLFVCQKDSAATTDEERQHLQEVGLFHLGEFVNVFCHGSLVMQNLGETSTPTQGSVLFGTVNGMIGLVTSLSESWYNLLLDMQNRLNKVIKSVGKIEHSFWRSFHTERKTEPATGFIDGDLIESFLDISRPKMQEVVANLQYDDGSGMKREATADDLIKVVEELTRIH
Sequence of UV-DDB (DDB1-DDB2 heterodimer) (Q92466 whole entry, chain 2 of 2): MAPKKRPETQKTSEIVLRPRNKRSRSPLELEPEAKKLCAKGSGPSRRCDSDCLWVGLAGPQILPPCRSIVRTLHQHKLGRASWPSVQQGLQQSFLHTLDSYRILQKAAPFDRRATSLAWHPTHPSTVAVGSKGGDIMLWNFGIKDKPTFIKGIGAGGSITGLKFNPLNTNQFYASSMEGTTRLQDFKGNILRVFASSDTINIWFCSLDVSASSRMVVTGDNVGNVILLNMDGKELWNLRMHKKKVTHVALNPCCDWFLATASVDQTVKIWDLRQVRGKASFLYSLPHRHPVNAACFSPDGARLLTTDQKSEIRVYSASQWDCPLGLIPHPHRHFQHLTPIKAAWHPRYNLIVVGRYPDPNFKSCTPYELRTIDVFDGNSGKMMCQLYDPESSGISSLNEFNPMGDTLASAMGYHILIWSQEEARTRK
Sequence of UV-DDB (DDB1-DDB2 heterodimer) (Homo sapiens) (Q16531 whole entry, chain 1 of 2): as the sequence (Q16531 whole entry, chain 1 of 2) above
Sequence of UV-DDB (DDB1-DDB2 heterodimer) (Homo sapiens) (Q92466 whole entry, chain 2 of 2): as the sequence (Q92466 whole entry, chain 2 of 2) above
Sequence of OGG1 (O15527 whole entry): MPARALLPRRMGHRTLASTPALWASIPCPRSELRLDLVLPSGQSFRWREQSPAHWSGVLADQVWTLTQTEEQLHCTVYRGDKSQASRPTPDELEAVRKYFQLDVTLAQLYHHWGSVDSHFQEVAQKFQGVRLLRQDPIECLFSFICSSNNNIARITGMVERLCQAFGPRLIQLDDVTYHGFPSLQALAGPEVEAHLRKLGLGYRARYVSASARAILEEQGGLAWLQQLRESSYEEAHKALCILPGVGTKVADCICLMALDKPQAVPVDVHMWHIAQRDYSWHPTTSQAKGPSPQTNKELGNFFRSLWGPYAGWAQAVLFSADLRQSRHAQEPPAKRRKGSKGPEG

Take “CCGAGTCATTCCTGCAGCGNGTCCATGGGAGTCAAAT / ATTTGACTCCCATGGACTCGCTGCAGGAATGACTCGG [THF37]”: the Kd (usually the concentration at which binding is half-saturated) in data set [1] came out at 3.9 nM.

B1: 8-oxoG37(G:C) (dsDNA)
DNA 1: CCGAGTCATTCCTGCAGCGAGTCCATGGGAGTCAAAT
DNA 2: ATTTGACTCCCATGGACTCGCTGCAGGAATGACTCGG
modifications: 8-oxoG at position 21 of strand 1 (printed as Z), opposite C
As to B1, binding in data set [2] was put at a Kd of 160 ± 12.4 nM. Besides, in data set [3], the binding signal is ~3 fold lower affinity than THF37.

B2: UD37 (dsDNA)
DNA 1: B1 DNA 1
DNA 2: B1 DNA 2
Regarding B2, binding in data set [2] was put at a Kd of 1110 ± 95.5 nM.

B3: 8-oxoG37(G:A) (dsDNA)
DNA 1: B1 DNA 1
DNA 2: B1 DNA 2 with C17A
modifications: 8-oxoG at position 21 of strand 1 (printed as Z), opposite A
In data set [2], B3 showed a Kd of 164 ± 14.8 nM.
